The target of the assay is Dog MCH receptor (dog). In words: cell-based or functional assay.

Consider one substance from patent US20030212252A1.

Dog MCH receptor (dog), sequence (Q5IJ49 other isoform, or with tags, fused parts or gaps): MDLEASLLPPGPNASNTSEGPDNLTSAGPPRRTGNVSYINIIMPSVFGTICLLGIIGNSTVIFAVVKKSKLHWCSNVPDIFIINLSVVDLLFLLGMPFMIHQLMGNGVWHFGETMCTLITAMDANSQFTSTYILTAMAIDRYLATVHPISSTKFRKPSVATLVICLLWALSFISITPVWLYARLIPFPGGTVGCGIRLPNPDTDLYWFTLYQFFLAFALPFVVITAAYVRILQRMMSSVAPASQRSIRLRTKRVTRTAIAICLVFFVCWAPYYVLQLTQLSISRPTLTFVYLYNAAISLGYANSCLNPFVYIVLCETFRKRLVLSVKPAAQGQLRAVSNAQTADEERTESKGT

“Melanin-concentrating hormone (MCH) (from UniProt P20382 147-165) (peptide)” returned an EC50 for activation of the dog MCH receptor (aequorin bioluminescence, fractional response, in transfected 293-AEQ17 cells) of 30 nM.
